From IntAct's records for PubMed 18171471

Molecular target: fak1_chick PTK2 (UniProt Q00944)
Sequence (Q00944 whole entry): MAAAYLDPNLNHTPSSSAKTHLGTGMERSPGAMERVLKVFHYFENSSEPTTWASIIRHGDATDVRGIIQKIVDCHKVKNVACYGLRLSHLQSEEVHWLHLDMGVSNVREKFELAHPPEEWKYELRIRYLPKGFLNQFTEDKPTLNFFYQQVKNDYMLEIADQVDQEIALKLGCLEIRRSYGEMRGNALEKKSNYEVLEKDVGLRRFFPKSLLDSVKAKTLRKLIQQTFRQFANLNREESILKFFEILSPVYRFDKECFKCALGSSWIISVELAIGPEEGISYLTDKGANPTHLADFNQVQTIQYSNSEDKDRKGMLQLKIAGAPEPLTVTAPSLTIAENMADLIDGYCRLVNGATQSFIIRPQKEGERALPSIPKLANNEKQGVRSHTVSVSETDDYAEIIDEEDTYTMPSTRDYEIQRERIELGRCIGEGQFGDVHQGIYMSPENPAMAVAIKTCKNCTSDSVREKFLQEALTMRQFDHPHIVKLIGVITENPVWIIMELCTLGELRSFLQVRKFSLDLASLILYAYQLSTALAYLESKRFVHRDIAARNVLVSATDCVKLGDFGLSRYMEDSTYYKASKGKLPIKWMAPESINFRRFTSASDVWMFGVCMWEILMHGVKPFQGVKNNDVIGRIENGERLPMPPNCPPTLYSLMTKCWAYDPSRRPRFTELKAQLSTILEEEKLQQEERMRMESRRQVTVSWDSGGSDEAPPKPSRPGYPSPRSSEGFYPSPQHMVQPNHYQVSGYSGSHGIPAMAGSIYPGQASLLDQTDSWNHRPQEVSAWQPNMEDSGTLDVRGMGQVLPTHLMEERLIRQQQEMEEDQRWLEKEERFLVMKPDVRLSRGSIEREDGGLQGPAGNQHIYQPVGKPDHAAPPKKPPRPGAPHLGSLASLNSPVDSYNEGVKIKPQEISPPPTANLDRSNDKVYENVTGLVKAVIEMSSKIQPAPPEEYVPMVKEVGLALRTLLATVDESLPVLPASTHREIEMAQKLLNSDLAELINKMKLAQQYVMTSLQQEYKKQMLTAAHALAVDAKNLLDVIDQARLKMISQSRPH

Sequence of Paxillin (Gallus gallus (Chicken)), P49024 D146A (P49024 whole entry D146A): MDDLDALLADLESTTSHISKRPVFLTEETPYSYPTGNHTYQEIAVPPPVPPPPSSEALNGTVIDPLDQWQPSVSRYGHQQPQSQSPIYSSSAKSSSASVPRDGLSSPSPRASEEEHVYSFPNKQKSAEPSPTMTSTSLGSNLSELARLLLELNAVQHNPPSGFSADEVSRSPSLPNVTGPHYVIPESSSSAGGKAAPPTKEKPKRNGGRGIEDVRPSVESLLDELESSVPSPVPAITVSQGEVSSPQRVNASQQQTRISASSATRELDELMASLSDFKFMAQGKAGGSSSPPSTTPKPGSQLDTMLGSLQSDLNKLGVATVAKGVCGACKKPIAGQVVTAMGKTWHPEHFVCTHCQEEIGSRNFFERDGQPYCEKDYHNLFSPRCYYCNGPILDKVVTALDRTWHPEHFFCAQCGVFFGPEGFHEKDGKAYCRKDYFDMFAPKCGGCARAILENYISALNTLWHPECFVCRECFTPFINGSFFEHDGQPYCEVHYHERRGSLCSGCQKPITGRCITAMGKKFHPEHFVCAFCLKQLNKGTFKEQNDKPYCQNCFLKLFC
Sequence of Paxillin (Gallus gallus (Chicken)), P49024 D146A;D268A (P49024 whole entry D146A/D268A): as the sequence (P49024 whole entry D146A) above, with D268A counted along it

effect of a mutation on the interaction | Substance
decreasing interaction | Paxillin (Gallus gallus (Chicken)), P49024 D146A
disrupting interaction | Paxillin (Gallus gallus (Chicken)), P49024 D146A;D268A
